Reference: patent US20150307603A1 (MODIQUEST B V, published 2015)
Non-standard residues stand in square brackets, D forms with d. No end group written: not given here. Cit = NC(=O)NCCC[C@H](N)C(=O)O

Columns and labels:
[1] = molecular target: T1, peptide no. 9 (human histone 2A) (human, also: biotin-labelled); assay: ELISA, Ab 0.00064 ug/well
T1 construct: also called peptide 9
T1 peptide: DNKKT[Cit]IIPRHL
Method: (§1) Biotin and citrulline-containing peptides derived from histone 2A were immobilized on NEUTRAVIDIN®-coated 96-well ELISA plates (0.3 μg/well). CFC-1 and CFC-0 were coated at the same concentration and served as positive and negative controls, respectively, for specific anti-citrulline reactivity and as coating controls. Non-coated wells were used to test for aspecific binding of the antibodies. […] Detection of bound anti-citrulline antibodies was performed by incubating the wells with rabbit anti-human HRP (1:2000) for 1 hour at RT followed by incubation with TMB substrate. The resulting OD (y-axis) is a measure for antibody binding.

CFC-1 [2] = molecular target: T2, CFC-1; assay: ELISA, Ab 0.00064 ug/well
T2 construct: Positive control for anti-citrulline reactivity; also called cfc1 XG; Cfc1-peptide
Method: as §1

[3] = molecular target: T3, peptide no. 7 (human histone 2A) (human, also: biotin-labelled); assay: ELISA, Ab 0.00064 ug/well
T3 construct: also called peptide 7
T3 peptide: GNYSE[Cit]VGAGAP
Method: as §1

[4] = molecular target: T4, peptide no. 8 (human histone 2A) (human, also: biotin-labelled); assay: ELISA, Ab 0.00064 ug/well
T4 construct: also called peptide 8
T4 peptide: AGNAA[Cit]DNKKTR
Method: as §1

[5] = molecular target: T5, peptide no. 2 (human histone 2A) (human, also: biotin-labelled); assay: ELISA, Ab 0.00064 ug/well
T5 construct: also called peptide 2
T5 peptide: AKAKS[Cit]SSRAGL
Method: as §1

[6] = molecular target: T6, peptide no. 5 (human histone 2A) (human, also: biotin-labelled); assay: ELISA, Ab 0.00064 ug/well
T6 construct: also called peptide 5
T6 peptide: VGRVH[Cit]LLRKGN
Method: as §1

[7] = molecular target: T7, peptide no. 4 (human histone 2A) (human, also: biotin-labelled); assay: ELISA, Ab 0.00064 ug/well
T7 construct: also called peptide 4
T7 peptide: QFPVG[Cit]VHRLLR
Method: as §1

[8] = molecular target: T8, peptide no. 11 (human histone 2A) (human, also: biotin-labelled); assay: ELISA, Ab 0.00064 ug/well
T8 construct: also called peptide 11
T8 peptide: LQLAI[Cit]NDEELN
Method: as §1

[9] = molecular target: T9, peptide no. 1 (human histone 2A) (human, also: biotin-labelled); assay: ELISA, Ab 0.00064 ug/well
T9 construct: also called peptide 1; AAASGXGKQGGK
T9 peptide: AAASG[Cit]GKQGGK
Method: as §1

huFibα XG [10] = molecular target: T10, huFibα XG (human, X at position 8 = citrulline; biotin-labelled); assay: ELISA, Ab 0.00064 ug/well
T10 peptide: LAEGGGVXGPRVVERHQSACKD
Method: as §1, with “fibrinogen and vimentin” for “histone 2A”
(§2) Biotin-labeled and citrulline-containing fibrinogen and vimentin peptides (Table 5) were also tested for reactivity with the therapeutic antibodies. Peptides were coated on 96-well NEUTRAVIDIN®-ELISA plates.

msVim XS/XL [11] = molecular target: T11, msVim XS/XL (mouse, also: biotin-labelled); assay: ELISA, Ab 0.00064 ug/well
T11 construct: also called mouse vimentin peptide
T11 peptide: YVT[Cit]SSAV[Cit]L[Cit]SSVP
Method: as §1, with “fibrinogen and vimentin” for “histone 2A”
as §2

huFibα XH [12] = molecular target: T12, huFibα XH (human, X at position 15 = citrulline; biotin-labelled); assay: ELISA, Ab 0.00064 ug/well
T12 peptide: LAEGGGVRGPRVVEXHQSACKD
Method: as §1, with “fibrinogen and vimentin” for “histone 2A”
as §2

msFibα XH [13] = molecular target: T13, msFibα XH (mouse, X at position 15 = citrulline; biotin-labelled); assay: ELISA, Ab 0.00064 ug/well
T13 peptide: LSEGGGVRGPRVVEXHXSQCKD
Method: as §1, with “fibrinogen and vimentin” for “histone 2A”
as §2

msFibα XG [14] = molecular target: T14, msFibα XG (mouse, X at position 8 = citrulline; biotin-labelled); assay: ELISA, Ab 0.00064 ug/well
T14 peptide: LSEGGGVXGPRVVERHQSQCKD
Method: as §1, with “fibrinogen and vimentin” for “histone 2A”
as §2

huFibα XG [15] = molecular target: T10, huFibα XG; assay: ELISA, Ab 0.016 ug/well
Method: as §1, with “fibrinogen and vimentin” for “histone 2A”
as §2

msVim XS/XL [16] = molecular target: T11, msVim XS/XL; assay: ELISA, Ab 0.016 ug/well
Method: as §1, with “fibrinogen and vimentin” for “histone 2A”
as §2

huFibα XH [17] = molecular target: T12, huFibα XH; assay: ELISA, Ab 0.016 ug/well
Method: as §1, with “fibrinogen and vimentin” for “histone 2A”
as §2

CFC-1 [18] = molecular target: T2, CFC-1; assay: ELISA, Ab 0.016 ug/well
Method: as §1, with “fibrinogen and vimentin” for “histone 2A”
as §2

msFibα XH [19] = molecular target: T13, msFibα XH; assay: ELISA, Ab 0.016 ug/well
Method: as §1, with “fibrinogen and vimentin” for “histone 2A”
as §2

msFibα XG [20] = molecular target: T14, msFibα XG; assay: ELISA, Ab 0.016 ug/well
Method: as §1, with “fibrinogen and vimentin” for “histone 2A”
as §2

msFibβ XG = molecular target: T15, msFibβ XG (mouse, also: biotin-labelled); assay: ELISA, Ab 0.016 ug/well
T15 construct: also called mouse fibrinogen β peptide
T15 peptide: EPTDSLDA[Cit]GHRPVDRR
Method: as §1, with “fibrinogen and vimentin” for “histone 2A”
as §2

[21] = molecular target: T16, peptide no. 3 (human histone 2A) (human, also: biotin-labelled); assay: ELISA, Ab 2 ug/well
T16 construct: also called peptide 3
T16 peptide: KSRSS[Cit]AGLQFP
Method: as §1

[22] = molecular target: T17, peptide no. 6 (human histone 2A) (human, also: biotin-labelled); assay: ELISA, Ab 2 ug/well
T17 construct: also called peptide 6
T17 peptide: VHRLL[Cit]KGNYSE
Method: as §1

[23] = molecular target: T6, peptide no. 5 (human histone 2A); assay: ELISA, Ab 2 ug/well
Method: as §1

[24] = molecular target: T18, peptide no. 10 (human histone 2A) (human, also: biotin-labelled); assay: ELISA, Ab 2 ug/well
T18 construct: also called peptide 10
T18 peptide: TRIIP[Cit]HLQLAI
Method: as §1

[25] = molecular target: T7, peptide no. 4 (human histone 2A); assay: ELISA, Ab 2 ug/well
Method: as §1

[26] = molecular target: T8, peptide no. 11 (human histone 2A); assay: ELISA, Ab 2 ug/well
Method: as §1

B1: RhmAb2.102 (antibody, human IgG1, lambda)
heavy: not shown
light: QSVLTQPPSMSAAPGQKVTISCSGSSSNIGNNYVSWYQQVPGTAPKLLIYDDNKRPSGIPGRFSGSKSATSATLGITGLQAGDEADYYCGSWDDNLSVVLFGGGTKLTVLGQPKAAPSVTLFPPSSEELQANKATLVCLISDFYPGAVTVAWKADSSPVKAGVETTTPSKQSNNKYAASSYLSLTPEQWKSHRSYSCQVTHEGSTVEKTVAPTECS
notes: Human IgG1 lambda; also called Rhm2.102
For B1, which OD [1] is on record?
Its OD is 0.059 OD450.

And the OD (CFC-1 [2])?
Its OD is 0.621 OD450.

And the OD [3]?
The OD was 0.057 OD450.

And the OD [4]?
The OD was 0.057 OD450.

And the OD [5]?
Its OD is 0.055 OD450.

What about the OD [6] of the same binder?
The OD was 0.067 OD450.

And the OD [7]?
The OD was 0.063 OD450.

And the OD [8]?
The OD was 0.06 OD450.

And the OD [9]?
The OD was 0.16 OD450.

And the OD (huFibα XG [10])?
Its OD is 0.125 OD450.

What about the OD (msVim XS/XL [11]) of the same binder?
The OD was 0.154 OD450.

What about the OD (huFibα XH [12]) of the same binder?
Its OD is 0.124 OD450.

What about the OD (msFibα XH [13]) of the same binder?
Its OD is 0.088 OD450.

What about the OD (msFibα XG [14]) of the same binder?
Its OD is 0.116 OD450.

And the OD (huFibα XG [15])?
The OD was 0.103 OD450.

And the OD (msVim XS/XL [16])?
The OD was 0.201 OD450.

What about the OD (huFibα XH [17]) of the same binder?
Its OD is 0.08 OD450.

And the OD (CFC-1 [18])?
The OD was 1.22 OD450.

And the OD (msFibα XH [19])?
Its OD is 0.081 OD450.

What about the OD (msFibα XG [20]) of the same binder?
Its OD is 0.107 OD450.

What about the OD (msFibβ XG) of the same binder?
The OD was 0.174 OD450.

What about the OD [21] of the same binder?
Its OD is 0.286 OD450.

What about the OD [22] of the same binder?
The OD was 0.752 OD450.

And the OD [23]?
Its OD is 0.111 OD450.

What about the OD [24] of the same binder?
Its OD is 0.07 OD450.

And the OD [25]?
The OD was 1.3 OD450.

What about the OD [26] of the same binder?
The OD was 0.067 OD450.
